{"source": "patent US8729232", "test_system": "T1, biotinylated 13-mer peptide LCTPSKGSLFTGR (native Mtb motif with arginine to lysine substitution at position 6)", "T1 sequence": "LCTPSKGSLFTGR", "data": [{"substance": "Mycobacterium tuberculosis formylglycine generating enzyme (Mtb FGE, Rv0712), recombinant", "values": [{"measurement": "FGly conversion detected by MALDI-TOF", "result": "A peak indicating the FGly-modified species appeared"}]}]}
